Data taken from patent US20040167319A1 (Genmab, published 2004).
Bridges are numbered along the chain shown (N, C = ends). Where no end group is shown, it is not given here. minicard = not defined here

Columns and labels:
[1] = target: T1, CAHTPYINC (linker 1-9 via 1,3‑bis(bromomethyl)‑benzene (inferred); not fully specified (C-terminus); also: covalently linked to minicard); assay: Pepscan ELISA, 100 µg/ml
T1 construct: 9-mer looped Pepscan peptide derived from human CD20
T1 peptide: CAHTPYINC
Description: (§1) In some cases chemical linkage of the legs of a 15-mer peptide helps to identify amino acid sequences of a potentially discontinuous epitope. […] The 9- and 15-mers were synthesized as loops and screened using credit-card format mini-PEPSCAN cards (455 peptide format/card). In all looped peptides amino acids at varied positions were replaced by a cysteine (e.g., acetyl-XCXXXXXXXXCX-minicard). The peptides were synthesized using standard Fmoc-chemistry and deprotected using TFA with scavengers. Subsequently, the deprotected peptides were reacted on the microarray with an 0.5 mM solution of 1,3-bis(bromomethyl)-benzene in ammonium bicarbonate (20 mM, pH 7.9), supplemented with acetonitrile (1:1 (v/v)). The microarrays were gently shaken in the solution for 30-60 min, while completely covered in the solution. Finally, the microarrays were washed extensively with excess of Millipore H₂O and sonicated in disrupt-buffer containing 1% sodium dodecylsulfate, 0.1% β-mercaptoethanol, in PBS (pH 7.2) at 70° C. for 30 min, followed by sonication in millipore H₂O for another 45 min. Subsequently, the microwells were ready for screening in an ELISA-assay.
(§2) […] After washing, the peptides were incubated with anti-human antibody peroxidase (dilution 1:1000, 1 hour, 25° C.), and after washing the peroxidase substrate, 2,2′-azino-di-3-ethylbenzthiazolin sulfonate and 2 μl/ml 3% H₂O₂ were added. After one hour, the color development was measured. The color development of the ELISA was quantified with a CCD-camera and an image processing system.

[2] = target: T2, CIRAHTPYC (linker 1-9 via 1,3‑bis(bromomethyl)‑benzene (inferred); not fully specified (C-terminus); also: covalently linked to minicard); assay: Pepscan ELISA, 100 µg/ml
T2 construct: 9-mer looped Pepscan peptide derived from human CD20
T2 peptide: CIRAHTPYC
Description: as §1, §2

[3] = target: T3, GIYAPIA (also: covalently linked to polyethylene card); assay: Pepscan ELISA, 100 µg/ml
T3 construct: 7-mer Pepscan peptide derived from human CD20 (A in place of the C of GIYAPIC)
T3 peptide: GIYAPIA
Description: as §1, §2

[4] = target: T4, IYAPIAV (also: covalently linked to polyethylene card); assay: Pepscan ELISA, 100 µg/ml
T4 construct: 7-mer Pepscan peptide derived from human CD20 (A in place of the C of IYAPICV)
T4 peptide: IYAPIAV
Description: as §1, §2

[5] = target: T5, GIYAPIC (also: covalently linked to polyethylene card); assay: Pepscan ELISA, 100 µg/ml
T5 construct: 7-mer Pepscan peptide derived from human CD20
T5 peptide: GIYAPIC
Description: as §1, §2

[6] = target: T6, LKMECLNFIRCHTPY (linker 5-11 via 1,3‑bis(bromomethyl)‑benzene (inferred); reading uncertain); assay: Pepscan ELISA, 100 µg/ml
T6 construct: 15-mer looped Pepscan peptide derived from human CD20, Cys put in at two positions
T6 peptide: Ac-LKMECLNFIRCHTPY-minicard
Description: as §1, §2

[7] = target: T7, AGIYAPI (also: covalently linked to polyethylene card); assay: Pepscan ELISA, 100 µg/ml
T7 construct: 7-mer Pepscan peptide derived from human CD20
T7 peptide: AGIYAPI
Description: as §1, §2

[8] = target: T8, MESLCFIRAHCPYIN (linker 5-11 via 1,3‑bis(bromomethyl)‑benzene (inferred); reading uncertain); assay: Pepscan ELISA, 100 µg/ml
T8 construct: 15-mer looped Pepscan peptide derived from human CD20, Cys put in at two positions
T8 peptide: Ac-MESLCFIRAHCPYIN-minicard
Description: as §1, §2

[9] = target: T9, CFIRAHTPC (linker 1-9 via 1,3‑bis(bromomethyl)‑benzene (inferred); not fully specified (C-terminus); also: covalently linked to minicard); assay: Pepscan ELISA, 100 µg/ml
T9 construct: 9-mer looped Pepscan peptide derived from human CD20
T9 peptide: CFIRAHTPC
Description: as §1, §2

[10] = target: T10, IPAGIYA (also: covalently linked to polyethylene card); assay: Pepscan ELISA, 100 µg/ml
T10 construct: 7-mer Pepscan peptide derived from human CD20
T10 peptide: IPAGIYA
Description: as §1, §2

[11] = target: T11, CRAHTPYIC (linker 1-9 via 1,3‑bis(bromomethyl)‑benzene (inferred); not fully specified (C-terminus); also: covalently linked to minicard); assay: Pepscan ELISA, 100 µg/ml
T11 construct: 9-mer looped Pepscan peptide derived from human CD20
T11 peptide: CRAHTPYIC
Description: as §1, §2

[12] = target: T12, PAGIYAP (also: covalently linked to polyethylene card); assay: Pepscan ELISA, 100 µg/ml
T12 construct: 7-mer Pepscan peptide derived from human CD20
T12 peptide: PAGIYAP
Description: as §1, §2

[13] = target: T13, KMECLNFIRAHCPYI (linker 4-12 via 1,3‑bis(bromomethyl)‑benzene (inferred); reading uncertain); assay: Pepscan ELISA, 100 µg/ml
T13 construct: 15-mer looped Pepscan peptide derived from human CD20, Cys put in at two positions
T13 peptide: Ac-KMECLNFIRAHCPYI-minicard
Description: as §1, §2

[14] = target: T14, KMESCNFIRACTPYI (linker 5-11 via 1,3‑bis(bromomethyl)‑benzene (inferred); reading uncertain); assay: Pepscan ELISA, 100 µg/ml
T14 construct: 15-mer looped Pepscan peptide derived from human CD20, Cys put in at two positions
T14 peptide: Ac-KMESCNFIRACTPYI-minicard
Description: as §1, §2

[15] = target: T15, IYAPICV (also: covalently linked to polyethylene card); assay: Pepscan ELISA, 100 µg/ml
T15 construct: 7-mer Pepscan peptide derived from human CD20
T15 peptide: IYAPICV
Description: as §1, §2

[16] = target: T3, GIYAPIA; assay: Pepscan ELISA, 10 µg/ml
Description: as §1, §2

[17] = target: T16, EPANPSEK of the second extracellular loop of human CD20 (human); assay: Pepscan ELISA
T16 construct: not a peptide made as such
T16 peptide: EPANPSEK
Method: (§3) Pepscan ELISA-assay: The 455-well credit card-format polyethylene cards, containing the covalently linked peptides, were incubated with serum (diluted 1:1000 in blocking solution which contains 5% horse serum (v/v) and 5% ovalbumin (w/v)) (4° C., over night). After washing, the peptides were incubated with anti-human antibody peroxidase (dilution 1:1000, 1 hour, 25° C.), and after washing the peroxidase substrate, 2,2′-azino-di-3-ethylbenzthiazolin sulfonate and 2 μl/ml 3% H₂O₂ were added. After one hour, the color development was measured. The color development of the ELISA was quantified with a CCD-camera and an image processing system. The set up consists of a CCD-camera and a 55 mm lens (Sony CCD Video Camera XC-77RR, Nikon micro-nikk or 55 mm f/2.8 lens), a camera adaptor (Sony Camera adaptor DC-77RR) and the Image Processing Software package Optimas, version 6.5 (Media Cybernetics, Silver Spring, Md. 20910, U.S.A.). Optimas runs on a pentium II computer system.

[18] = target: T17, AGIYAP of the small first extracellular loop of human CD20 (human); assay: Pepscan ELISA
T17 construct: not a peptide made as such
T17 peptide: AGIYAP
Method: as §3

[19] = target: T18, MESLNFIRAHTPYI of the second extracellular loop of human CD20 (human); assay: Pepscan ELISA
T18 construct: not a peptide made as such
T18 peptide: MESLNFIRAHTPYI
Method: as §3

B1: 11B8 (antibody, IgG3, V domains shown)
VH: EVQLVQSGGGLVHPGGSLRLSCTGSGFTFSYHAMHWVRQAPGKGLEWVSIIGTGGVTYYADSVKGRFTISRDNVKNSLYLQMNSLRAEDMAVYYCARDYYGAGSFYDGLYGMDVWGQGTTVTVSS
VL: EIVLTQSPATLSLSPGERATLSCRASQSVSSYLAWYQQKPGQAPRLLIYDASNRATGIPARFSGSGSGTDFTLTISSLEPEDFAVYYCQQRSDWPLTFGGGTKVEIK
notes: Human monoclonal IgG3,κ from hybridoma
[1]
  OD (absorbance): 452 OD
[2]
  OD (absorbance): 449 OD
[3]
  OD (absorbance): 857 OD
[4]
  OD (absorbance): 654 OD
[5]
  OD (absorbance): 251 OD
[6]
  OD (absorbance): 738 OD
[7]
  OD (absorbance): 2210 OD
[8]
  OD (absorbance): 956 OD
[9]
  OD (absorbance): 534 OD
[10]
  OD (absorbance): 950 OD
[11]
  OD (absorbance): 1600 OD
[12]
  OD (absorbance): 2500 OD
[13]
  OD (absorbance): 3000 OD
[14]
  OD (absorbance): 3090 OD
[15]
  OD (absorbance): 313 OD
[16]
  OD (absorbance): 172 OD
[17]
  binding result: no binding (tested: 10 µg/ml)

B2: 7D8 (antibody, IgG1, V domains shown)
VH: EVQLVESGGGLVQPDRSLRLSCAASGFTFHDYAMHWVRQAPGKGLEWVSTISWNSGTIGYADSVKGRFTISRDNAKNSLYLQMNSLRAEDTALYYCAKDIQYGNYYYGMDVWGQGTTVTVSS
VL: EIVLTQSPATLSLSPGERATLSCRASQSVSSYLAWYQQKPGQAPRLLIYDASNRATGIPARFSGSGSGTDFTLTISSLEPEDFAVYYCQQRSNWPITFGQGTRLEIK
notes: Human monoclonal IgG1,κ from hybridoma
[1]
  OD (absorbance): 65 OD
[2]
  OD (absorbance): 60 OD
[3]
  OD (absorbance): 96 OD
[4]
  OD (absorbance): 58 OD
[5]
  OD (absorbance): 64 OD
[6]
  OD (absorbance): 41 OD
[7]
  OD (absorbance): 73 OD
[8]
  OD (absorbance): 55 OD
[9]
  OD (absorbance): 69 OD
[11]
  OD (absorbance): 64 OD
[12]
  OD (absorbance): 64 OD
[13]
  OD (absorbance): 41 OD
[14]
  OD (absorbance): 52 OD
[15]
  OD (absorbance): 58 OD
[16]
  OD (absorbance): 177 OD
[18]
  binding result: no binding (tested: 100 µg/ml)
[19]
  binding result: no binding (tested: 100 µg/ml)
[17]
  binding result: no binding (tested: 10 µg/ml)

B3: 2F2 (antibody, V domains shown)
VH: EVQLVESGGGLVQPGRSLRLSCAASGFTFNDYAMHWVRQAPGKGLEWVSTISWNSGSIGYADSVKGRFTISRDNAKKSLYLQMNSLRAEDTALYYCAKDIQYGNYYYGMDVWGQGTTVTVSS
VL: EIVLTQSPATLSLSPGERATLSCRASQSVSSYLAWYQQKPGQAPRLLIYDASNRATGIPARFSGSGSGTDFTLTISSLEPEDFAVYYCQQRSNWPITFGQGTRLEIK
modifications: FITC- or 125I-labelled in some assays; F(ab')2 fragments in some; the letters do not carry this
notes: Human monoclonal IgG1,κ from hybridoma; also called 4C9; HuMab 2F2 (hybridoma-derived)
[1]
  OD (absorbance): 106 OD
[2]
  OD (absorbance): 92 OD
[3]
  OD (absorbance): 96 OD
[4]
  OD (absorbance): 76 OD
[5]
  OD (absorbance): 93 OD
[6]
  OD (absorbance): 87 OD
[7]
  OD (absorbance): 98 OD
[8]
  OD (absorbance): 65 OD
[9]
  OD (absorbance): 114 OD
[10]
  OD (absorbance): 85 OD
[11]
  OD (absorbance): 87 OD
[12]
  OD (absorbance): 85 OD
[13]
  OD (absorbance): 66 OD
[14]
  OD (absorbance): 78 OD
[15]
  OD (absorbance): 99 OD
[16]
  OD (absorbance): 62 OD
